In article PMC10154249 (2023):

Target: His-UPCP (HIV | human)
Assay: MST

B1: Flag-PTBP1 (natural protein)
chain: not shown
With B1 the Kd was 4.63 µM.
